The source of these data is the supplement of paper PMC10567573.

To fix the notation:
B1: ETS1 (parent)
chain: YVRDRADLNKDKPVIPAAALAGYT
B2: TPRG1 (parent)
chain: ETIQGFWLLTKIDHWNNEKERILL
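Note: lentivirally expressed fusions sorted by FACS into six bins by GFP to DsRed ratio, PSI derived from sequencing read proportions per bin multiplied by bin number.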

In the first data set the parent is B1. Description: protein stability index of a GFP-peptide fusion (GPS, HEK-293T) (PSI 1-6); higher = more stable. As to conditions: c terminus: a fixed tail appended.
Take YVRDTADLNKDKPVIPAAALAGYT [R5T]: the protein stability index amounted to 2.02. YVRDSADLNKDKPVIPAAALAGYT [R5S]: the protein stability index came to 2.23. Take YVRDPADLNKDKPVIPAAALAGYT [R5P]: the protein stability index came to 1.72. On the same count and under the same terms, the figure for YVRDCADLNKDKPVIPAAALAGYT [R5C] is 2.36. The same measure, in the same setting: under YVRDIADLNKDKPVIPAAALAGYT [R5I] stands 3.08; under YVRDEADLNKDKPVIPAAALAGYT [R5E], 2.36. Take YVRDVADLNKDKPVIPAAALAGYT [R5V]: the protein stability index was 1.44. Still for that read-out and setting: the figure for YVRDLADLNKDKPVIPAAALAGYT [R5L] is 1.82; for YVRKRADLNKDKPVIPAAALAGYT [D4K] it is 2.07. Turning to YVRFRADLNKDKPVIPAAALAGYT [D4F], the protein stability index was 2.32. With YVRYRADLNKDKPVIPAAALAGYT [D4Y], the protein stability index was 3.23. As for YVRLRADLNKDKPVIPAAALAGYT [D4L], the protein stability index was determined as 2.03. Regarding YVRARADLNKDKPVIPAAALAGYT [D4A], the protein stability index stood at 2.68.

On to YVRHRADLNKDKPVIPAAALAGYT [D4H], for which the protein stability index came to 1.94. On the same count and under the same terms, under YVRERADLNKDKPVIPAAALAGYT [D4E] stands 1.79. In the case of YVRSRADLNKDKPVIPAAALAGYT [D4S], the protein stability index came to 1.77.

As for YVRQRADLNKDKPVIPAAALAGYT [D4Q], the protein stability index is 1.57. On the same count and under the same terms, the figure for YVRIRADLNKDKPVIPAAALAGYT [D4I] is 2.05; for YVRCRADLNKDKPVIPAAALAGYT [D4C] it is 3.5; for YVRMRADLNKDKPVIPAAALAGYT [D4M] it is 3.45. The same measure, in the same setting: under YVRGRADLNKDKPVIPAAALAGYT [D4G] stands 2.47; under YVRTRADLNKDKPVIPAAALAGYT [D4T], 3.02; under YVRRRADLNKDKPVIPAAALAGYT [D4R], 2.1. As to YVRNRADLNKDKPVIPAAALAGYT [D4N], the protein stability index worked out at 3.01. On to YVRWRADLNKDKPVIPAAALAGYT [D4W], for which the protein stability index came out at 1.83.

For the variant YVRPRADLNKDKPVIPAAALAGYT [D4P], the protein stability index turned out to be 2.24. As for YYRDRADLNKDKPVIPAAALAGYT [V2Y], the protein stability index is 3.5.

In the case of YCRDRADLNKDKPVIPAAALAGYT [V2C], the protein stability index came out at 2.25. On the same count and under the same terms, the figure for YSRDRADLNKDKPVIPAAALAGYT [V2S] is 3.76; for YPRDRADLNKDKPVIPAAALAGYT [V2P] it is 3; for YLRDRADLNKDKPVIPAAALAGYT [V2L] it is 3.69. Still for that read-out and setting: under YFRDRADLNKDKPVIPAAALAGYT [V2F] stands 2.88; under YARDRADLNKDKPVIPAAALAGYT [V2A], 4.01. Same read-out and setting: under YWRDRADLNKDKPVIPAAALAGYT [V2W] stands 3.19. Turning to YERDRADLNKDKPVIPAAALAGYT [V2E], the protein stability index worked out at 4.25. On the same count and under the same terms, under YMRDRADLNKDKPVIPAAALAGYT [V2M] stands 3.81; under YKRDRADLNKDKPVIPAAALAGYT [V2K], 3.61; under YDRDRADLNKDKPVIPAAALAGYT [V2D], 4.34. On the same count and under the same terms, the figure for YHRDRADLNKDKPVIPAAALAGYT [V2H] is 2.46; for YIRDRADLNKDKPVIPAAALAGYT [V2I] it is 2.17; for YNRDRADLNKDKPVIPAAALAGYT [V2N] it is 3.77. Turning to YQRDRADLNKDKPVIPAAALAGYT [V2Q], the protein stability index amounted to 2.93.

YRRDRADLNKDKPVIPAAALAGYT [V2R]: the protein stability index was 3.79. The same measure, in the same setting: under YGRDRADLNKDKPVIPAAALAGYT [V2G] stands 3.53; under YTRDRADLNKDKPVIPAAALAGYT [V2T], 3.5.

The next data set covers variants of B2. The description is as above. As to conditions: c terminus: a fixed tail appended.
Regarding ETIQGFWLLTKIDHWNNEKEIILL [R21I], the protein stability index turned out to be 2.51.

Regarding ETIQGFWLLTKIDHWNNEKEKILL [R21K], the protein stability index turned out to be 1.66. On the same count and under the same terms, the figure for ETIQGFWLLTKIDHWNNEKELILL [R21L] is 2.75; for ETIQGFWLLTKIDHWNNEKEGILL [R21G] it is 2.98. With ETIQGFWLLTKIDHWNNEKEQILL [R21Q], the protein stability index was 3.52. In the case of ETIQGFWLLTKIDHWNNEKEDILL [R21D], the protein stability index was found to be 1.3.

For ETIQGFWLLTKIDHWNNEKECILL [R21C], the protein stability index is 3.09. The same measure, in the same setting: the figure for ETIQGFWLLTKIDHWNNEKETILL [R21T] is 2.79; for ETIQGFWLLTKIDHWNNEKEPILL [R21P] it is 2.58. Same read-out and setting: under ETIQGFWLLTKIDHWNNEKEHILL [R21H] stands 2.66; under ETIQGFWLLTKIDHWNNEKEEILL [R21E], 3.83; under ETIQGFWLLTKIDHWNNEKERIPL [L23P], 1.95. As for ETIQGFWLLTKIDHWNNEKERIVL [L23V], the protein stability index turned out to be 3.52.

Regarding ETIQGFWLLTKIDHWNNEKERIWL [L23W], the protein stability index amounted to 3.52.

In the case of ETIQGFWLLTKIDHWNNEKERIRL [L23R], the protein stability index was determined as 1.77. Regarding ETIQGFWLLTKIDHWNNEKERITL [L23T], the protein stability index is 2.42.

ETIQGFWLLTKIDHWNNEKERIEL [L23E]: the protein stability index is 2.38. Regarding ETIQGFWLLTKIDHWNNEKERIKL [L23K], the protein stability index worked out at 1.23. Still for that read-out and setting: under ETIQGFWLLTKIDHWNNEKERIQL [L23Q] stands 1.78; under ETIQGFWLLTKIDHWNNEKERISL [L23S], 3.2. Same read-out and setting: under ETIQGFWLLTKIDHWNNEKERIYL [L23Y] stands 4.45. The same measure, in the same setting: the figure for ETIQGFWLLTKIDHWNNEKERIIL [L23I] is 3.88; for ETIQGFWLLTKIDHWNNEKERIML [L23M] it is 3.45; for ETIQGFWLLTKIDHWNNEKERIAL [L23A] it is 2.89. Turning to ETIQGFWLLTKIDHWNNEKERDLL [I22D], the protein stability index is 1.01. On the same count and under the same terms, the figure for ETIQGFWLLTKIDHWNNEKERGLL [I22G] is 1.89. On the same count and under the same terms, the figure for ETIQGFWLLTKIDHWNNEKERHLL [I22H] is 2.02; for ETIQGFWLLTKIDHWNNEKERYLL [I22Y] it is 1.63. Consider ETIQGFWLLTKIDHWNNEKERPLL [I22P], for which the protein stability index turned out to be 1.61.

For ETIQGFWLLTKIDHWNNEKERVLL [I22V], the protein stability index was 3.42. For ETIQGFWLLTKIDHWNNEKERELL [I22E], the protein stability index came out at 2.16.

As to ETIQGFWLLTKIDHWNNEKERNLL [I22N], the protein stability index worked out at 2.6. Regarding ETIQGFWLLTKIDHWNNEKERRLL [I22R], the protein stability index was found to be 1.48.

On to ETIQGFWLLTKIDHWNNEKERALL [I22A], for which the protein stability index was determined as 2.62. On the same count and under the same terms, under ETIQGFWLLTKIDHWNNEKERKLL [I22K] stands 2.15; under ETIQGFWLLTKIDHWNNEKERLLL [I22L], 3.26; under ETIQGFWLLTKIDHWNNEKERFLL [I22F], 3.5. Same read-out and setting: the figure for ETIQGFWLLTKIDHWNNEKERQLL [I22Q] is 3.38; for ETIQGFWLLTKIDHWNNEKERMLL [I22M] it is 3.17. Same read-out and setting: the figure for ETIQGFWLLTKIDHWNNEKERILV [L24V] is 2.5; for ETIQGFWLLTKIDHWNNEKERILH [L24H] it is 4.13; for ETIQGFWLLTKIDHWNNEKERILN [L24N] it is 3.07. With ETIQGFWLLTKIDHWNNEKERILM [L24M], the protein stability index worked out at 2.21. As to ETIQGFWLLTKIDHWNNEKERILK [L24K], the protein stability index is 2.24. In the case of ETIQGFWLLTKIDHWNNEKERILW [L24W], the protein stability index was 2.52. Regarding ETIQGFWLLTKIDHWNNEKERILQ [L24Q], the protein stability index came out at 3.61. As for ETIQGFWLLTKIDHWNNEKERILC [L24C], the protein stability index amounted to 2.36. The same measure, in the same setting: the figure for ETIQGFWLLTKIDHWNNEKERILG [L24G] is 4.41; for ETIQGFWLLTKIDHWNNEKERILP [L24P] it is 2.8.
